We go through nine substances from US10835608B2, “Polymer-carbohydrate conjugates for drug delivery technology” (priority 2013, dated 2020).

One series can be described thus: Solubility study of voriconazole: minimum polymer to drug ratio required to solubilize voriconazole. To be noted: 1% (w/v) voriconazole in saline based solution.
Experimental: 1% (w/v) of voricazole was prepared in a saline based solution with different PEG-carbohydrate conjugates.
Regarding “N,N,N-oleoyl-lactobionoyl-mPEG(12)propanediamine”, the “Polymer concentration needed to solubilize voriconazole, comparison in words” value is listed as “much high concentration” and the “Solubilizing Voriconazole (min. polymer to drug ratio)” value is recorded as 20.

The next series is described as follows: Solubility study of propofol: minimum conjugate concentration required to solubilize propofol. The class given is physicochemical. To be noted: 1% (w/v) propofol in saline based solution. An excerpt:
Table 15 listed the minimum concentration of the conjugates required to solubilize propofol as a solubility test reference.
For the substance “Retinoylpropanediaminelactobionate-mPEG11”, the “Concentration (minimum concentration of the conjugate required to solubilize propofol)” value amounted to 2.9 % w/v.

With “Cholesterypropanediamineascorbate-mPEG11”, the “Concentration (minimum concentration of the conjugate required to solubilize propofol)” value worked out at 4.6 % w/v.

For “Cholesterypropanediamineisomaltotriose-mPEG11”, the “Concentration (minimum concentration of the conjugate required to solubilize propofol)” value is recorded as 2.0 % w/v.

For “Cholecalciferol-diethylene-triamineisomal-totriose-mPEG11”, the “Concentration (minimum concentration of the conjugate required to solubilize propofol)” value worked out at 2.2 % w/v.

“Cholesterypropanediaminegluconate-mPEG11”: the “Concentration (minimum concentration of the conjugate required to solubilize propofol)” value turned out to be 5.3 % w/v and the “Conjugate concentration needed to solubilize propofol, comparison in words” value is listed as “much high conjugate concentration was required”.

On to “Tocopherylpropanediaminelactobionate-mPEG11”, for which the “Concentration (minimum concentration of the conjugate required to solubilize propofol)” value is reported as 3.3 % w/v and the “Conjugate concentration needed to solubilize propofol, comparison in words” value is reported as “the lowest molar concentration”.

As to “Cholesterytriethylenetetraminelactobionate-di-mPEG11”, the “Concentration (minimum concentration of the conjugate required to solubilize propofol)” value worked out at 1.6 % w/v.

Regarding “Cholesterypropanediaminelactobionate-mPEG11”, the “Concentration (minimum concentration of the conjugate required to solubilize propofol)” value is listed as 3.2 % w/v.
